Data set [1] concerns the target T1, IFN-γ (interferon gamma) (UniProt P01579 24-161). Nature of the data set: graphene-Nafion FET biosensor.
Data set [2] concerns the target T1, IFN-γ (interferon gamma). Nature of the data set: graphene-Nafion FET biosensor. The source holds these as a separate data set.

Results on 1 molecule are retold here after article PMC13344369.

Read-outs that look alike come from different tables or passages of the source.

T1 sequence (P01579 24-161): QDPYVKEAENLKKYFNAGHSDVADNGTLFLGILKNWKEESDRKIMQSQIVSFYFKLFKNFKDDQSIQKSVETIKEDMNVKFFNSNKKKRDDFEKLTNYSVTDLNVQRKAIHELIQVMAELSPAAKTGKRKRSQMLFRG

The term Kd denotes a measure of binding affinity in units of concentration. A higher Kd goes with weaker binding. Consider GGGGTTGTTTGTGTTGGGTGTTGTGT (ssDNA, 5'-NH2) [IFN-γ-specific aptamer], for which the Kd was determined as 4.39 nM with IFN-γ (interferon gamma) [1] and 4.21 nM with IFN-γ (interferon gamma) [2].
